B1: Focal adhesion kinase 1 (Gallus gallus (Chicken)), Q00944 (parent)
chain: MAAAYLDPNLNHTPSSSAKTHLGTGMERSPGAMERVLKVFHYFENSSEPTTWASIIRHGDATDVRGIIQKIVDCHKVKNVACYGLRLSHLQSEEVHWLHLDMGVSNVREKFELAHPPEEWKYELRIRYLPKGFLNQFTEDKPTLNFFYQQVKNDYMLEIADQVDQEIALKLGCLEIRRSYGEMRGNALEKKSNYEVLEKDVGLRRFFPKSLLDSVKAKTLRKLIQQTFRQFANLNREESILKFFEILSPVYRFDKECFKCALGSSWIISVELAIGPEEGISYLTDKGANPTHLADFNQVQTIQYSNSEDKDRKGMLQLKIAGAPEPLTVTAPSLTIAENMADLIDGYCRLVNGATQSFIIRPQKEGERALPSIPKLANNEKQGVRSHTVSVSETDDYAEIIDEEDTYTMPSTRDYEIQRERIELGRCIGEGQFGDVHQGIYMSPENPAMAVAIKTCKNCTSDSVREKFLQEALTMRQFDHPHIVKLIGVITENPVWIIMELCTLGELRSFLQVRKFSLDLASLILYAYQLSTALAYLESKRFVHRDIAARNVLVSATDCVKLGDFGLSRYMEDSTYYKASKGKLPIKWMAPESINFRRFTSASDVWMFGVCMWEILMHGVKPFQGVKNNDVIGRIENGERLPMPPNCPPTLYSLMTKCWAYDPSRRPRFTELKAQLSTILEEEKLQQEERMRMESRRQVTVSWDSGGSDEAPPKPSRPGYPSPRSSEGFYPSPQHMVQPNHYQVSGYSGSHGIPAMAGSIYPGQASLLDQTDSWNHRPQEVSAWQPNMEDSGTLDVRGMGQVLPTHLMEERLIRQQQEMEEDQRWLEKEERFLVMKPDVRLSRGSIEREDGGLQGPAGNQHIYQPVGKPDHAAPPKKPPRPGAPHLGSLASLNSPVDSYNEGVKIKPQEISPPPTANLDRSNDKVYENVTGLVKAVIEMSSKIQPAPPEEYVPMVKEVGLALRTLLATVDESLPVLPASTHREIEMAQKLLNSDLAELINKMKLAQQYVMTSLQQEYKKQMLTAAHALAVDAKNLLDVIDQARLKMISQSRPH

Variants of: B1
Conditions: with arp3_bovin ACTR3, P61157

| Variant | effect of a mutation on the interaction |
| --- | --- |
| Y397F | increasing interaction |
